Assay results as given in article PMC3642092 (FEBS Open Bio, 2012).

Molecular target: F-actin (filamentous rabbit skeletal muscle actin) (rabbit, UniProt P68135 1-377)
Assay: co-sedimentation

Kd | Binder
123 ± 14 µM | UTR261^T36C/S242C, oxidised (intra-chain disulphide, locked closed) (domain or fragment, intra-chain disulphide between the engineered cysteines C36 and C242) MAKYGEHEASPDNGQNEFSDIIKSRSDEHNDVQKKCFTKWINARFSKSGKPPINDMFTDLKDGRKLLDLLEGLTGTSLPKERGSTRVHALNNVNRVLQVLHQNNVELVNIGGTDIVDGNHKLTLGLLWSIILHWQVKDVMKDVMSDLQQTNSEKILLSWVRQTTRPYSQVNVLNFTTSWTDGLAFNAVLHRHKPDLFSWDKVVKMSPIERLEHAFSKAQTYLGIEKLLDPEDVAVQLPDKKCIIMYLTSLFEVLPQQVTID
74.8 ± 19 µM | UTR261^T36C/S242C, reduced (domain or fragment) MAKYGEHEASPDNGQNEFSDIIKSRSDEHNDVQKKCFTKWINARFSKSGKPPINDMFTDLKDGRKLLDLLEGLTGTSLPKERGSTRVHALNNVNRVLQVLHQNNVELVNIGGTDIVDGNHKLTLGLLWSIILHWQVKDVMKDVMSDLQQTNSEKILLSWVRQTTRPYSQVNVLNFTTSWTDGLAFNAVLHRHKPDLFSWDKVVKMSPIERLEHAFSKAQTYLGIEKLLDPEDVAVQLPDKKCIIMYLTSLFEVLPQQVTID
